The results in this text go back to patent US20260274955A1 (JANUX THERAPEUTICS, published 2026).

First the molecules themselves.
B1: Phage-833 (peptide)
peptide: YCEGHFGMYMSKCL
B2: Phage-855 (peptide)
peptide: YCDGHIEMYMSKCM
B3: Phage-859 (peptide)
peptide: YCDGHTPQFRAKCL
B4: Phage-844 (peptide)
peptide: YCEGHLPQYLAKCY
B5: Phage-841 (peptide)
peptide: YCEGHMSEYMRKCL
B6: Phage-822 (peptide)
peptide: YCDGHSPQYLWKCL
B7: Phage-850 (peptide)
peptide: YCDGHAAWYLQKCL
B8: Phage-815 (peptide)
peptide: YCDGHSMTYMAKCI
B9: Phage-853 (peptide)
peptide: YCSGHLPMYMAKCL
B10: Phage-826 (peptide)
peptide: YCEGHSSEYMVKCL
B11: Phage-814 (peptide)
peptide: YCAGHAAIYMAKCL
B12: Phage-817 (peptide)
peptide: YCDGHDPQYIRKCI
B13: Phage-862 (peptide)
peptide: YCDGHIMPYLDKCL
B14: Phage-831 (peptide)
peptide: YCEGHAQQYMLKCL
B15: Phage-851 (peptide)
peptide: YCEGHAQMYMLKCL
B16: Phage-832 (peptide)
peptide: YCAGHSVQYMYKCL
B17: Phage-848 (peptide)
peptide: YCMGHSAEYMGKCL
B18: Phage-836 (peptide)
peptide: YCAGHLPQYVSKCL
B19: Phage-816 (peptide)
peptide: YCDGHKWEYLQKCL
B20: Phage-837 (peptide)
peptide: YCEGHLPWYMSKCL
B21: Phage-818 (peptide)
peptide: YCEGHLPMYMQKCM
B22: Phage-849 (peptide)
peptide: YCDGHAWWYMEKCL
B23: Phage-839 (peptide)
peptide: YCDGHLPRFMVKCL
B24: Phage-863 (peptide)
peptide: YCEGHKKEYMLKCL
B25: Phage-829 (peptide)
peptide: YCDGHAGIYVLKCL
B26: Phage-824 (peptide)
peptide: YCAGHTQEYMLKCL
B27: Phage-825 (peptide)
peptide: YCQGHSVQYMAKCL
B28: Phage-847 (peptide)
peptide: YCDGHMDAYMSKCL
B29: Phage-846 (peptide)
peptide: YCEGHAAVYMHKCL
B30: Phage-820 (peptide)
peptide: YCEGHAREYMDKCL
B31: Phage-838 (peptide)
peptide: YCDGHHLEYIDKCL
B32: Phage-854 (peptide)
peptide: YCEGHLAVHMSKCL
B33: Phage-843 (peptide)
peptide: YCDGHEPQYMTKCL
B34: Phage-835 (peptide)
peptide: YCQGHALQYLQKCL
B35: Phage-852 (peptide)
peptide: YCEGHSRQYMEKCM
B36: Phage-857 (peptide)
peptide: YCEGHIGDYIAKCL
B37: Phage-834 (peptide)
peptide: YCAGHMPQYMSKCL
B38: Phage-860 (peptide)
peptide: YCEGHLQEYMGKCL
B39: Phage-842 (peptide)
peptide: YCVGHLPLYMPNCL
B40: Phage-858 (peptide)
peptide: YCQGHSELYMSKCL
B41: Phage-827 (peptide)
peptide: YCDGHTGVYKWKCI
B42: Phage-828 (peptide)
peptide: YCAGHIGEYMDKCL
B43: Phage-823 (peptide)
peptide: YCAGHSAEYIQKCL
B44: Phage-840 (peptide)
peptide: YCQGHAPWYMVKCL
B45: Phage-861 (peptide)
peptide: YCDGHVTEYMAKCL
B46: Phage-830 (peptide)
peptide: YCDGHNPVYLAKCL

Sequence of Anti-CD28 Fab (SEQ ID NOs: 202, 203) (VH, as listed by the source, chain 1 of 2): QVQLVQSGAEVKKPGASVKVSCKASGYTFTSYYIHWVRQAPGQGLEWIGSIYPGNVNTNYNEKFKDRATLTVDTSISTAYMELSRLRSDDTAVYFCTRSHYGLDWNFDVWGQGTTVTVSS
Sequence of Anti-CD28 Fab (SEQ ID NOs: 202, 203) (VL, as listed by the source, chain 2 of 2): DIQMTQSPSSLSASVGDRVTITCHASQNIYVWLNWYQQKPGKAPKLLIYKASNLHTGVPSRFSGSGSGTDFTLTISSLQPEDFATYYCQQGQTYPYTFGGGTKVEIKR

The first test concerns the target Anti-CD28 Fab (SEQ ID NOs: 202, 203). The experiment in a line: phage binding ELISA on captured Fab.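 Also: clonal phage supernatants added briefly to wells pre-incubated with CD28 antigen or with blocking buffer only, then washed, bound phage read by ELISA using HRP-coupled anti-M13 antibody.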
Description: (§1) Clonal phage were harvested as crude supernatants and screened via standard ELISAs. […] Prior to the addition of clonal phage, wells were incubated with blocking buffer and CD28 antigen or blocking buffer alone. Without washing or aspirating, clonal phage supernatants were then added to the wells and incubated for a short time. Wells were then washed followed by detection of bound phage using a horse radish conjugated anti-M13 antibody.
Regarding B1, the “Anti-CD28 Fab (SEQ ID NOs: 202, 203) signal” value was found to be 0.73.
Regarding B2, the “Anti-CD28 Fab (SEQ ID NOs: 202, 203) signal” value came to 0.61.
As for B3, the “Anti-CD28 Fab (SEQ ID NOs: 202, 203) signal” value was 0.59.
Take B4: the “Anti-CD28 Fab (SEQ ID NOs: 202, 203) signal” value is 0.67.
The same measure, in the same setting: in the case of B5 it was 0.69.
For the molecule B6, the “Anti-CD28 Fab (SEQ ID NOs: 202, 203) signal” value amounted to 0.8.
For B7, the “Anti-CD28 Fab (SEQ ID NOs: 202, 203) signal” value worked out at 0.64.
The same measure, in the same setting: in the case of B8 it was 0.84; in that of B9, 0.62; in that of B10, 0.77.
Regarding B11, the “Anti-CD28 Fab (SEQ ID NOs: 202, 203) signal” value was 0.85.
For the molecule B12, the “Anti-CD28 Fab (SEQ ID NOs: 202, 203) signal” value is 0.83.
For the molecule B13, the “Anti-CD28 Fab (SEQ ID NOs: 202, 203) signal” value came to 0.57.
In the case of B14, the “Anti-CD28 Fab (SEQ ID NOs: 202, 203) signal” value was 0.74.
For the molecule B15, the “Anti-CD28 Fab (SEQ ID NOs: 202, 203) signal” value was determined as 0.64.
On to B16, for which the “Anti-CD28 Fab (SEQ ID NOs: 202, 203) signal” value came out at 0.74.
Turning to B17, the “Anti-CD28 Fab (SEQ ID NOs: 202, 203) signal” value is 0.64.
On to B18, for which the “Anti-CD28 Fab (SEQ ID NOs: 202, 203) signal” value was found to be 0.7.
For the molecule B19, the “Anti-CD28 Fab (SEQ ID NOs: 202, 203) signal” value was 0.84.
For the molecule B20, the “Anti-CD28 Fab (SEQ ID NOs: 202, 203) signal” value came out at 0.69.
Consider B21, for which the “Anti-CD28 Fab (SEQ ID NOs: 202, 203) signal” value came out at 0.82.
In the case of B22, the “Anti-CD28 Fab (SEQ ID NOs: 202, 203) signal” value is 0.64.
As to B23, the “Anti-CD28 Fab (SEQ ID NOs: 202, 203) signal” value stood at 0.69.
In the case of B24, the “Anti-CD28 Fab (SEQ ID NOs: 202, 203) signal” value came to 0.56.
As for B25, the “Anti-CD28 Fab (SEQ ID NOs: 202, 203) signal” value was 0.75.
B26: the “Anti-CD28 Fab (SEQ ID NOs: 202, 203) signal” value is 0.78.
Consider B27, for which the “Anti-CD28 Fab (SEQ ID NOs: 202, 203) signal” value was determined as 0.77.
On to B28, for which the “Anti-CD28 Fab (SEQ ID NOs: 202, 203) signal” value worked out at 0.65.
As to B29, the “Anti-CD28 Fab (SEQ ID NOs: 202, 203) signal” value stood at 0.67.
Regarding B30, the “Anti-CD28 Fab (SEQ ID NOs: 202, 203) signal” value was 0.8.
With B31, the “Anti-CD28 Fab (SEQ ID NOs: 202, 203) signal” value was 0.69.
With B32, the “Anti-CD28 Fab (SEQ ID NOs: 202, 203) signal” value was 0.62.
With B33, the “Anti-CD28 Fab (SEQ ID NOs: 202, 203) signal” value was determined as 0.68.
Same read-out and setting: in the case of B34 it was 0.71; in that of B35, 0.63.
Take B36: the “Anti-CD28 Fab (SEQ ID NOs: 202, 203) signal” value is 0.61.
Turning to B37, the “Anti-CD28 Fab (SEQ ID NOs: 202, 203) signal” value was 0.72.
Take B38: the “Anti-CD28 Fab (SEQ ID NOs: 202, 203) signal” value is 0.58.
On the same count and under the same terms, next, B39: 0.68.
Consider B40, for which the “Anti-CD28 Fab (SEQ ID NOs: 202, 203) signal” value turned out to be 0.6.
On the same count and under the same terms, next, B41: 0.76; B42: 0.75.
With B43, the “Anti-CD28 Fab (SEQ ID NOs: 202, 203) signal” value worked out at 0.8.
On to B44, for which the “Anti-CD28 Fab (SEQ ID NOs: 202, 203) signal” value is 0.69.
Take B45: the “Anti-CD28 Fab (SEQ ID NOs: 202, 203) signal” value was found to be 0.58.
Consider B46, for which the “Anti-CD28 Fab (SEQ ID NOs: 202, 203) signal” value is 0.74.

For the next test the target is unchanged. Nature of the test: phage binding ELISA on captured Fab, competitor CD28 antigen.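 Also: clonal phage supernatant binding in wells preincubated with CD28 antigen in blocking buffer, detected by HRP-conjugated anti-M13 antibody ELISA, compared with blocking buffer alone.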
Description: as §1
Consider B1, for which the “Anti-CD28 Fab signal in the presence of CD28” value (shortened to “Anti-CD28 Fab signal”) came to 0.07.
For B2, the “Anti-CD28 Fab signal” value was determined as 0.06.
The same measure, in the same setting: in the case of B3 it was 0.07; in that of B4, 0.08.
With B5, the “Anti-CD28 Fab signal” value came out at 0.1.
For the molecule B6, the “Anti-CD28 Fab signal” value was 0.05.
As to B7, the “Anti-CD28 Fab signal” value turned out to be 0.07.
Still for that read-out and setting: in the case of B8 it was 0.06.
On the same count and under the same terms, in the case of B9 it was 0.13; in that of B10, 0.06.
As to B11, the “Anti-CD28 Fab signal” value amounted to 0.07.
Same read-out and setting: next, B12: 0.06.
With B13, the “Anti-CD28 Fab signal” value is 0.05.
As to B14, the “Anti-CD28 Fab signal” value was 0.05.
As to B15, the “Anti-CD28 Fab signal” value came out at 0.06.
Regarding B16, the “Anti-CD28 Fab signal” value amounted to 0.06.
As for B17, the “Anti-CD28 Fab signal” value was determined as 0.06.
B18: the “Anti-CD28 Fab signal” value is 0.06.
With B19, the “Anti-CD28 Fab signal” value is 0.06.
For B20, the “Anti-CD28 Fab signal” value is 0.09.
Consider B21, for which the “Anti-CD28 Fab signal” value turned out to be 0.07.
B22: the “Anti-CD28 Fab signal” value turned out to be 0.06.
With B23, the “Anti-CD28 Fab signal” value came out at 0.07.
For B24, the “Anti-CD28 Fab signal” value turned out to be 0.08.
For the molecule B25, the “Anti-CD28 Fab signal” value was 0.08.
Consider B26, for which the “Anti-CD28 Fab signal” value was determined as 0.06.
Consider B27, for which the “Anti-CD28 Fab signal” value amounted to 0.06.
Still for that read-out and setting: in the case of B28 it was 0.06; in that of B29, 0.09.
As to B30, the “Anti-CD28 Fab signal” value turned out to be 0.07.
B31: the “Anti-CD28 Fab signal” value was 0.06.
As to B32, the “Anti-CD28 Fab signal” value was determined as 0.06.
For the molecule B33, the “Anti-CD28 Fab signal” value was determined as 0.1.
Consider B34, for which the “Anti-CD28 Fab signal” value amounted to 0.08.
On to B35, for which the “Anti-CD28 Fab signal” value is 0.33.
Same read-out and setting: in the case of B36 it was 0.36.
For the molecule B37, the “Anti-CD28 Fab signal” value is 0.05.
Still for that read-out and setting: next, B38: 0.25.
As to B39, the “Anti-CD28 Fab signal” value turned out to be 0.11.
With B40, the “Anti-CD28 Fab signal” value turned out to be 0.08.
For B41, the “Anti-CD28 Fab signal” value amounted to 0.06.
Same read-out and setting: next, B42: 0.58.
For B43, the “Anti-CD28 Fab signal” value was determined as 0.08.
On to B44, for which the “Anti-CD28 Fab signal” value came out at 0.08.
Take B45: the “Anti-CD28 Fab signal” value stood at 0.07.
Take B46: the “Anti-CD28 Fab signal” value is 0.08.
